Each block holds one binder with its values, some of them ahead of it.
Columns and labels:
[1] = target: T1, recombinant soluble human FcγRIIB (UniProt P31994 43-217); test: SPR; N297A format
T1 chain: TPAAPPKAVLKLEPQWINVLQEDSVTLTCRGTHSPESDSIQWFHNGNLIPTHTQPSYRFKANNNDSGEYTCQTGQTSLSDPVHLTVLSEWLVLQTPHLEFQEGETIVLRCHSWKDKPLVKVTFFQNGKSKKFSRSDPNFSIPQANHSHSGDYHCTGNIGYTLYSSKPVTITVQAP

[2] = target: T2, native FcγRIIB expressed on cells (Raji, Daudi, PBMC B cells) (human, UniProt P31994 43-310); test: cell-based or functional assay
T2 sequence (looked up): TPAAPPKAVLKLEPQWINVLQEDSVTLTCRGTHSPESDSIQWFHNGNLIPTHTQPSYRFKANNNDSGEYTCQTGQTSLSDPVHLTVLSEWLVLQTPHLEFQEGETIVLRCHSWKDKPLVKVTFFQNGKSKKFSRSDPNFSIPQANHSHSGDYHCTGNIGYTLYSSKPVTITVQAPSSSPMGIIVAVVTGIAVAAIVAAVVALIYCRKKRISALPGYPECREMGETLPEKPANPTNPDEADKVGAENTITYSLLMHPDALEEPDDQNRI

[3] = target: FcεRI at the surface of basophils (human) (UniProt P12319); test: cell-based or functional assay
[4] = target: T3, recombinant soluble human FcγRIIB (human, UniProt P31994 43-217); test: antigen-specific ELISA, sFcγRIIB coated, hybridoma supernatant
T3 construct: also called sFcγRIIB; SM101
T3 sequence: T1 chain
Method: Fusion of the myeloma cell line with the rat immune spleen cells was performed according to standard procedures. […] MAbs from tissue culture supernatant bound to the proteins were detected with HRP conjugated mAbs against the rat IgG isotypes (TIB173 anti-IgG2a, TIB174 anti-IgG2b, TIB170 anti-IgG1 all from ATCC, R-2c anti-IgG2c homemade), thus avoiding mAbs of IgM class. […] A FACS based assay was used to screen the antibodies for specific binding of the native antigen). Additionally the antibodies were screened for non-blocking characteristics, i.e. these antibodies still allow binding of IgG or immune complexes to membrane-bound FcγRIIB.

[5] = target: T1, recombinant soluble human FcγRIIB; test: SPR; wildtype Fc format

Sequence of FcεRI at the surface of basophils (human) (P12319 26-257): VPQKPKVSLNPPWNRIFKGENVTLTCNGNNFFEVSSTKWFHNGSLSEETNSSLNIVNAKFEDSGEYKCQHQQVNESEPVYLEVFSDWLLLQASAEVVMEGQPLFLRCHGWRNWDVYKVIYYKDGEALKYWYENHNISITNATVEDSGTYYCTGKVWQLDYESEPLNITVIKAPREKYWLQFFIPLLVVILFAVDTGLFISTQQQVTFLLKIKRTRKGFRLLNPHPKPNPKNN

- binding result [4]: binds
B3: monoclonal antibody 8A6 (rat IgG2a) (antibody, V domains shown)
VH: EVQLVESGGDLVQPGRSLRLSCAASGFTFSDYYMAWVRQAPKKGLEWVASISSDGSNTYYGDSVKGRFTISRDNTRSNLYLQMNSLRSEDTATYYCARPGDYWGQGVMVTVSS
VL: NIVMTQSPTSMFISVGDRVTMNCKASQNVGTYVDWFQQKTGQSPTLLIFGASNRYTGVPDRFTGSGSGTDFTLSISNMQAEDLAVYYCLQYNYHPYTFGPGTTLELKR
notes: Rat IgG2a from hybridoma supernatant; also called mAb 8A6; rat antibody 8A6

- koff [5]: 0.00049 s⁻¹
B4: ch8A6_wt (antibody)
chain 1: B3 VH
chain 2: B3 VL

More lines, now with the values behind:

B1: chGB3_N297A (antibody, V domains shown)
VH: VQLQQSGPELVKPGASVKISCKASGYTFTDYYIYWVKQWPGQGLEWIGWIFPGTGNTYYNENFKDKATLTIDRSSSTAYMLLGSLTSEDSAVYFCYGPFAYWGQ
VL: RIQLTQSPSSLSASLGERVSLTCRASQEISGYLSWLQQKPDGTIKRLIYATSALDSGVPKRFSGSGSGSNYSLTISSLESEDFADYYCLQYANYPYTFGGGTKL
- koff [1]: 0.01 s⁻¹
- FcγRIIB-ITIM phosphorylation, densitometry of Western blot, Daudi cells, against untreated cells [2]: 2.8 fold

B2: ch8A6_cε2-4-degly (bispecific antibody, part only; not given: CH1, CL and IgE Fc domains, not shown: a dimerising Fc or GST)
heavy, part: B3 VH
light, part: B3 VL
- basophil activation by pollen, CD63-positive basophils, after 2 h incubation with antibody (% positive cells) [3]: 84.4 to 88
- basophil activation by pollen, CD63-positive basophils, after 6 h incubation with 0.5 µg/ml antibody [3]: 76.6%
- basophil activation by pollen, CD63-positive basophils, after 6 h incubation with antibody [3]: 76 to 84%

From patent publication US20170226208A1 (SUPPREMOL, published 2017)
